Assay results from US20040203016.
Where two headings read alike, the source gives them in different places.

Tests used:
R recombinase [1] = details: in vitro resolution between RS sites, recombinants
R recombinase [2] = assay: cell_activity; details: in vivo resolution after 4 h in LB+IPTG (3% after 1 h)

## RS site
R recombinase [1]
  activity: 30%
R recombinase [2]
  activity: 15%
